Reference: the supplement of paper PMC6757056
± gives the standard deviation of the averaged measurements.

B1: library; a variant is named by its letters at N, in order (parent)
chain: GCUGUCACCGGUGCUUGGUACGUUAUAUUCAGCCGGUCUGAUGAGUCUNNNNNNAGACGAAACAGC

Tests used:
[1] = variants of: B1; test: normalized RNA/DNA level without ligand (relative to sTRSVctl = 100) (log10 (% of sTRSVctl)); HEK293T overexpressing SLC46A1; higher = less ribozyme self-cleavage, higher mRNA level; settings: without (6R,S)-folinic acid; ligand present: no
Procedure, shortened: (§1)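 Ribozyme switch library plasmids with mCherry reporters (eGFP in certain ligand experiments) went into HEK293T cells at 4 µg per 6-well well. Where ligand was used, it was applied 1 h before transfection, and total RNA was extracted with EDTA 72 h later for reverse transcription, amplification, barcoding and sequencing. RNA level is the RNA-to-DNA read ratio normalized to a spiked-in non-cleaving sequence or to the leading sequences, then scaled and log-transformed. Scaling was ×100 with log10, the leading set comprised 25 sequences, and the cutoff was ≥100 DNA reads.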

[2] = variants of: B1; test: normalized RNA/DNA level with ligand (relative to sTRSVctl = 100) (log10 (% of sTRSVctl)); HEK293T overexpressing SLC46A1; ligand concentration (+) RNA-Seq: 6 mM; higher = less ribozyme self-cleavage, higher mRNA level; settings: with (6R,S)-folinic acid; ligand present: yes
Procedure, shortened: as §1

Row | Variant | normalized RNA/DNA level without ligand (log10) [1] | normalized RNA/DNA level with ligand (log10) [2]
1 | GCUGUCACCGGUGCUUGGUACGUUAUAUUCAGCCGGUCUGAUGAGUCUUUCCUCAGACGAAACAGC [UUCCUC] | 2.096 ± 0.011 | 2.062 ± 0.02
2 | GCUGUCACCGGUGCUUGGUACGUUAUAUUCAGCCGGUCUGAUGAGUCUUCGGCAAGACGAAACAGC [UCGGCA] | 2.03 ± 0.029 | 2.04 ± 0.034
3 | GCUGUCACCGGUGCUUGGUACGUUAUAUUCAGCCGGUCUGAUGAGUCUUCCCCCAGACGAAACAGC [UCCCCC] | 2.06 ± 0.033 | 2.063 ± 0.012
4 | GCUGUCACCGGUGCUUGGUACGUUAUAUUCAGCCGGUCUGAUGAGUCUGCCCAUAGACGAAACAGC [GCCCAU] | 2.014 ± 0.0026 | 2.02 ± 0.061
5 | GCUGUCACCGGUGCUUGGUACGUUAUAUUCAGCCGGUCUGAUGAGUCUGAUCAUAGACGAAACAGC [GAUCAU] | 2.023 ± 0.008 | 2.02 ± 0.026
6 | GCUGUCACCGGUGCUUGGUACGUUAUAUUCAGCCGGUCUGAUGAGUCUAGCUGCAGACGAAACAGC [AGCUGC] | 2.038 ± 0.014 | 2.05 ± 0.022
7 | GCUGUCACCGGUGCUUGGUACGUUAUAUUCAGCCGGUCUGAUGAGUCUAGGUCAAGACGAAACAGC [AGGUCA] | 1.967 ± 0.014 | 2.01 ± 0.047
8 | GCUGUCACCGGUGCUUGGUACGUUAUAUUCAGCCGGUCUGAUGAGUCUCACCGCAGACGAAACAGC [CACCGC] | 2.047 ± 0.0053 | 2.04 ± 0.034
9 | GCUGUCACCGGUGCUUGGUACGUUAUAUUCAGCCGGUCUGAUGAGUCUGUACAAAGACGAAACAGC [GUACAA] | 1.966 ± 0.013 | 1.986 ± 0.011
10 | GCUGUCACCGGUGCUUGGUACGUUAUAUUCAGCCGGUCUGAUGAGUCUCCAUUCAGACGAAACAGC [CCAUUC] | 2.045 ± 0.02 | 2.03 ± 0.048
11 | GCUGUCACCGGUGCUUGGUACGUUAUAUUCAGCCGGUCUGAUGAGUCUCCAUCAAGACGAAACAGC [CCAUCA] | 2.026 ± 0.0086 | 2.02 ± 0.05
12 | GCUGUCACCGGUGCUUGGUACGUUAUAUUCAGCCGGUCUGAUGAGUCUUACCCAAGACGAAACAGC [UACCCA] | 2.0351 ± 0.0019 | 2.02 ± 0.034
13 | GCUGUCACCGGUGCUUGGUACGUUAUAUUCAGCCGGUCUGAUGAGUCUCCUUGAAGACGAAACAGC [CCUUGA] | 2.017 ± 0.0066 | 2.03 ± 0.027
14 | GCUGUCACCGGUGCUUGGUACGUUAUAUUCAGCCGGUCUGAUGAGUCUAGCUCUAGACGAAACAGC [AGCUCU] | 2.02 ± 0.039 | 2.055 ± 0.0097
15 | GCUGUCACCGGUGCUUGGUACGUUAUAUUCAGCCGGUCUGAUGAGUCUGAGCGCAGACGAAACAGC [GAGCGC] | 2.002 ± 0.017 | 2.03 ± 0.054
16 | GCUGUCACCGGUGCUUGGUACGUUAUAUUCAGCCGGUCUGAUGAGUCUCUUGCAAGACGAAACAGC [CUUGCA] | 2.019 ± 0.0087 | 2.03 ± 0.043
17 | GCUGUCACCGGUGCUUGGUACGUUAUAUUCAGCCGGUCUGAUGAGUCUUGGGUAAGACGAAACAGC [UGGGUA] | 1.892 ± 0.0053 | 1.98 ± 0.053
18 | GCUGUCACCGGUGCUUGGUACGUUAUAUUCAGCCGGUCUGAUGAGUCUGCGGUGAGACGAAACAGC [GCGGUG] | 2.032 ± 0.0067 | 2.07 ± 0.07
19 | GCUGUCACCGGUGCUUGGUACGUUAUAUUCAGCCGGUCUGAUGAGUCUCGCGCCAGACGAAACAGC [CGCGCC] | 2.096 ± 0.0053 | 2.0477 ± 0.00068
20 | GCUGUCACCGGUGCUUGGUACGUUAUAUUCAGCCGGUCUGAUGAGUCUAUCCAAAGACGAAACAGC [AUCCAA] | 1.958 ± 0.0049 | 1.98 ± 0.02
21 | GCUGUCACCGGUGCUUGGUACGUUAUAUUCAGCCGGUCUGAUGAGUCUUAGGCGAGACGAAACAGC [UAGGCG] | 1.762 ± 0.0037 | 1.97 ± 0.032

Row | Variant | normalized RNA/DNA level without ligand (log10) [1] | normalized RNA/DNA level with ligand (log10) [2]
22 | GCUGUCACCGGUGCUUGGUACGUUAUAUUCAGCCGGUCUGAUGAGUCUAAACCGAGACGAAACAGC [AAACCG] | 1.97 ± 0.0043 | 2 ± 0.029
23 | GCUGUCACCGGUGCUUGGUACGUUAUAUUCAGCCGGUCUGAUGAGUCUUACUCUAGACGAAACAGC [UACUCU] | 2.027 ± 0.0077 | 2.05 ± 0.028
24 | GCUGUCACCGGUGCUUGGUACGUUAUAUUCAGCCGGUCUGAUGAGUCUUAGUGUAGACGAAACAGC [UAGUGU] | 1.901 ± 0.008 | 1.99 ± 0.0065
25 | GCUGUCACCGGUGCUUGGUACGUUAUAUUCAGCCGGUCUGAUGAGUCUGCUCCAAGACGAAACAGC [GCUCCA] | 2.02 ± 0.019 | 2.03 ± 0.037
26 | GCUGUCACCGGUGCUUGGUACGUUAUAUUCAGCCGGUCUGAUGAGUCUGGUAGCAGACGAAACAGC [GGUAGC] | 1.923 ± 0.015 | 2.017 ± 0.013
27 | GCUGUCACCGGUGCUUGGUACGUUAUAUUCAGCCGGUCUGAUGAGUCUAAUCAUAGACGAAACAGC [AAUCAU] | 1.961 ± 0.0057 | 1.992 ± 0.011
28 | GCUGUCACCGGUGCUUGGUACGUUAUAUUCAGCCGGUCUGAUGAGUCUUAGCAAAGACGAAACAGC [UAGCAA] | 1.918 ± 0.0043 | 1.98 ± 0.035
29 | GCUGUCACCGGUGCUUGGUACGUUAUAUUCAGCCGGUCUGAUGAGUCUCAAUCAAGACGAAACAGC [CAAUCA] | 2.001 ± 0.0045 | 2.02 ± 0.033
30 | GCUGUCACCGGUGCUUGGUACGUUAUAUUCAGCCGGUCUGAUGAGUCUGUAAGAAGACGAAACAGC [GUAAGA] | 2.005 ± 0.0094 | 1.99 ± 0.02
31 | GCUGUCACCGGUGCUUGGUACGUUAUAUUCAGCCGGUCUGAUGAGUCUAACGGUAGACGAAACAGC [AACGGU] | 1.96 ± 0.022 | 2 ± 0.021
32 | GCUGUCACCGGUGCUUGGUACGUUAUAUUCAGCCGGUCUGAUGAGUCUCUGGGCAGACGAAACAGC [CUGGGC] | 2.059 ± 0.0035 | 2.03 ± 0.03
33 | GCUGUCACCGGUGCUUGGUACGUUAUAUUCAGCCGGUCUGAUGAGUCUAUAGAAAGACGAAACAGC [AUAGAA] | 1.937 ± 0.0051 | 1.98 ± 0.028
34 | GCUGUCACCGGUGCUUGGUACGUUAUAUUCAGCCGGUCUGAUGAGUCUCCCCUCAGACGAAACAGC [CCCCUC] | 2.05 ± 0.023 | 1.99 ± 0.038
35 | GCUGUCACCGGUGCUUGGUACGUUAUAUUCAGCCGGUCUGAUGAGUCUUCUCAGAGACGAAACAGC [UCUCAG] | 1.958 ± 0.012 | 1.98 ± 0.027
36 | GCUGUCACCGGUGCUUGGUACGUUAUAUUCAGCCGGUCUGAUGAGUCUCCGUAGAGACGAAACAGC [CCGUAG] | 1.93 ± 0.035 | 1.99 ± 0.022
37 | GCUGUCACCGGUGCUUGGUACGUUAUAUUCAGCCGGUCUGAUGAGUCUUGCAGCAGACGAAACAGC [UGCAGC] | 1.982 ± 0.0063 | 2.012 ± 0.018
38 | GCUGUCACCGGUGCUUGGUACGUUAUAUUCAGCCGGUCUGAUGAGUCUGUUCAGAGACGAAACAGC [GUUCAG] | 1.963 ± 0.0042 | 2 ± 0.043
39 | GCUGUCACCGGUGCUUGGUACGUUAUAUUCAGCCGGUCUGAUGAGUCUAAAUGUAGACGAAACAGC [AAAUGU] | 1.9431 ± 0.0016 | 1.99 ± 0.028
40 | GCUGUCACCGGUGCUUGGUACGUUAUAUUCAGCCGGUCUGAUGAGUCUUCCCGGAGACGAAACAGC [UCCCGG] | 2.05 ± 0.018 | 2.05 ± 0.059
41 | GCUGUCACCGGUGCUUGGUACGUUAUAUUCAGCCGGUCUGAUGAGUCUUAGCUAAGACGAAACAGC [UAGCUA] | 1.9994 ± 0.0013 | 2.03 ± 0.048
